# ± gives the uncertainty stated by the source.
# Assay: protein stability index of a GFP-peptide fusion (yeast GPS) (PSI 1-4); higher = more stable; sorted into four equal gates, so the index is relative within each strain
# Details: pdr5∆
# Procedure, shortened: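 Tiled 17-residue yeast protein peptides were fused downstream of GFP in a plasmid that also expresses Cherry, and the pooled library was carried in yeast. Mid-log cultures in leucine-free medium were sorted into four equal gates by GFP/Cherry fluorescence ratio, and plasmids from each gate were PCR-amplified and Illumina-sequenced, with reads assigned to strains by barcodes. The protein stability index for each peptide was each gate's read frequency times its gate number, summed.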
row,Sequence,protein stability index
1,IWKESLIELSGGQRSLI [SMC2],2.12 ± 0.091
2,IWLLSYIQYLGHLPEVS [ECM29],1.9 ± 0.06

# Same assay, conditions: san1∆
row,Sequence,protein stability index
1,IKNLPADVSKLMYSITF [SRB2],2.38 ± 0.049
2,IKSIIEQRKQKLSKILP [SMC3],2.52 ± 0.081
3,IKTVVLVPQLGHVGSVQ [PRP8],2.28 ± 0.063
4,IKVEGAVGNLGNAVTVT [RPL22A],3.15 ± 0.083
5,IKVWTIKGQCLATLLGH [ASC1],1.69 ± 0.1
6,ILADEMGLGKTLQTISF [ISW2],2.91 ± 0.057
7,ILDINVSSSKNKKSEEN [SWP82],3.27 ± 0.08
8,ILDKIFYGVLDQGNGWL [RPN6],2.45 ± 0.059
9,ILEVGALASIQTFNFDS [RPN12],2.96 ± 0.17
10,ILGELKRVKSYMDKAKQ [LRP1],1.89 ± 0.12
11,ILKDLIYRGVLNDENSD [SMC1],1.92 ± 0.13
12,ILLRYHHNDISNDSQSH [YCG1],1.96 ± 0.2
13,ILQQRSKINSTELLDYA [MED4],2.44 ± 0.054
14,ILRKELSEEKEVIFTDV [MCD1],2.32 ± 0.12
15,ILSLATEGCIGLSQTEA [MCD1],2.81 ± 0.09
16,ILSQQFDKIIKIREDHI [SRB8],3.04 ± 0.052
17,ILTPESQLKKTKAQQKT [RPL7B],2.91 ± 0.076
18,ILTREVQNSTLAQLTSK [RPS1B],2.48 ± 0.075
19,ILVDSLTGNQLPTPTPT [SWI1],2.93 ± 0.048
20,IMATNRLDILDPALLRP [RPT6],2.81 ± 0.065
21,IMDELLSSIAERVRNFA [DIB1],2.06 ± 0.084
22,IMKIGGIKLQMQNSKVE [SMC4],2.25 ± 0.12
23,IMKNKDFILSLLHHVSE [YJL039C/NUP192],1.92 ± 0.11
24,IMNVLSEGFEPTFSTHA [PRP8],2.57 ± 0.07
25,INGINWRFHTPQKYVLH [SIN4],1.83 ± 0.097
26,INIQSFKDVEHISFNFS [BRR2],2.67 ± 0.092

row,Sequence,protein stability index
1,INKIVEILTNQQRGITY [YGR119C/NUP57],2.12 ± 0.13
2,INKYESSPSHIELVVTE [RPL17A],2.05 ± 0.067
3,INNNINIPQQQQMQPPN [GAL11],2.83 ± 0.049
4,INQINEAHPTKVKNFGV [RPL20A],3.117 ± 0.031
5,INTLNGGSSDTADKIRI [GAL11],1.27 ± 0.094
6,IPAAGNNRSVSMQTIAE [SRB5],3.22 ± 0.081
7,IPAGIYWYWWKNGNEYN [QCR8],1.77 ± 0.13
8,IPATIFDKVIYHLHPTF [TAF14],2.55 ± 0.062
9,IPHDLNFLQESYEVEHV [TAF14],2.85 ± 0.07
10,IPKQLLDDEKIFSQTTN [YJL039C/NUP192],2.69 ± 0.059
11,IPMSKTIKDLVGGKSTV [FAS2],2.85 ± 0.072
12,IPSSKIDDFTTRLWGSV [SNU114],3 ± 0.12
13,IPSSYIKRTDEGGEAEF [ARP7],3.16 ± 0.11
14,IPTNPVDNENNKPAIKE [SWI3],2.89 ± 0.11
15,IPVKLLNEAQGHIVSLE [SMD3],2.77 ± 0.093
16,IQELEDQRDELLEQKKS [ITC1],3.24 ± 0.045
17,IQIMANIDQEGSKQADR [PGD1],3.08 ± 0.054
18,IQKEEEPENNTVIEGVK [SWI3],3.28 ± 0.048
19,IQNQSPQFNSPYDSNNS [SWI1],2.74 ± 0.052
20,IQRETLLPTNNGQPLNQ [GRR1],2.64 ± 0.06
21,IRCHREDCDLVIMALML [POP5],2.01 ± 0.091
22,IRDNKLVSEKIINSTAL [RPC82],2.99 ± 0.19
23,IRDSGDRIDLRYSKRAG [RPO21],3.25 ± 0.12
24,IREKVAKQALDLYHFAL [SNF2],2.62 ± 0.094
25,IRINDEPILGQITLTFI [YML103C/NUP188],1.57 ± 0.073
26,IRQYALATAHIYLSRFL [SSN8],1.26 ± 0.12

row,Sequence,protein stability index
1,IRRLRVLRRLLAKYRDA [RPL19A],1.34 ± 0.17
2,IRRTFNIVNDFTPEEEA [SKP1],3.16 ± 0.05
3,IRSVALNDSNVKSFKPH [RRP42],2.62 ± 0.23
4,ISAKDMGQGLCNNINKG [BRR2],3.12 ± 0.12
5,ISALTQTEIKDIILGQN [PRP8],1.92 ± 0.077
6,ISAPSMEDEILSLGMDF [BRN1],3.19 ± 0.05
7,ISEINFLHESSFDSIDH [CSI1],2.51 ± 0.069
8,ISEKDLVPKRCLFESLS [RPO31],2.94 ± 0.16
9,ISEVMEDRNQRIKEMYW [FAS1],2.99 ± 0.12
10,ISGYKKFSSTSRYMQYN [RPT1],1.56 ± 0.2
11,ISIPKTCDEIQNFENDF [REC8],2.61 ± 0.056
12,ISIYNMLPPKSVKFTHI [SSN2],2.13 ± 0.066
13,ISKHSKQAIYTRAAASE [RPS25B],2.6 ± 0.047
14,ISLAVEGEPVNSPNYFV [COR1],2.83 ± 0.12
15,ISLSVHTLALEFVNGGK [RRP46],2.06 ± 0.08
16,ISMILRNISFSDNNSRI [SWI1],2.77 ± 0.058
17,ISNKDVIFKIRDRTSGQ [SRB4],3.42 ± 0.077
18,ISNVIKPNQTIMVLDAS [SRP54],2.83 ± 0.06
19,ISPDPNLSIDEVAVPDR [RPO31],3.23 ± 0.069
20,ISPSAPSKDSFTKYKPA [YAR002W/NUP60],2.69 ± 0.094
21,ISSLMFDEEFDPFKTSS [IRR1],2.7 ± 0.14
22,ISTACPRLDDVVVDTVE [SMC4],3.3 ± 0.058
23,ISTAKAWGALITTFVKR [YML103C/NUP188],1.64 ± 0.063
24,ISVARKIYDAFPQTAML [DIS3],2.61 ± 0.14
25,ITARSAFVEFGASVIAG [SWP82],1.86 ± 0.11
26,ITASTLLYADSLTAEAM [CYT1],2.51 ± 0.095

row,Sequence,protein stability index
1,ITHAHSLSNPNSTATMQ [PGD1],2.5 ± 0.063
2,ITHRDLHYDKDYNLRIY [SSN8],2.46 ± 0.043
3,ITHTENYNDLIVNYEDL [BRN1],2.56 ± 0.14
4,ITIFSPEGRLYQVEYAF [SCL1],2.1 ± 0.092
5,ITKVTENLFSKEEVCQG [YMR129W/POM152],2.97 ± 0.074
6,ITLALADAGIELVDMAG [MTR3],2.2 ± 0.1
7,ITLRGVENIERVVMMKY [RPO21],1.23 ± 0.16
8,ITSFLLSKMENVNLDDY [NAS6],1.87 ± 0.12
9,ITSIMDDLALPYQHPPN [ITC1],3.08 ± 0.078
10,ITSLQDSSSQCIVDFTN [YMR129W/POM152],2.69 ± 0.058
11,ITVHAPLLPIVEELMKK [SNU114],2.52 ± 0.074
12,ITVRYWLNGKMDSKGKI [RGR1],3.31 ± 0.23
13,IVALTNAKDKERLQLLE [SMC3],3.01 ± 0.07
14,IVERETNWIIYPLWVMA [CSN12],2.76 ± 0.24
15,IVGKKIQEFLVVIEKRR [GRR1],3.29 ± 0.073
16,IVISLKNTMFEKSDALV [SMC1],2.55 ± 0.059
17,IVKRLYEYGAVSVLLIS [BRR2],2.24 ± 0.099
18,IVKTTTKQRLDAYYDLE [PRP8],3.07 ± 0.05
19,IVLDEVRNKSYPVYTRL [DIS3],2.99 ± 0.067
20,IVMEDHGVLQGTSQNYG [MED1],3.13 ± 0.062
21,IVPGTYIQERNPSQRPQ [RPS10B],3.08 ± 0.037
22,IVQAKEPNLAAQQDSTN [ECM29],2.69 ± 0.1
23,IVVAMTGKDCVAIACDL [PUP3],2.08 ± 0.066
24,IVVVIEIITSLSMRFQR [SRB8],2.18 ± 0.084
25,IWKESLIELSGGQRSLI [SMC2],1.98 ± 0.16
